Experimental data from article doi:10.1101/2022.12.22.521673 (bioRxiv, 2022).

T1: Bmh2 (S. cerevisiae (endogenous in meiotic …, UniProt P34730 1-273))
T1 sequence (looked up): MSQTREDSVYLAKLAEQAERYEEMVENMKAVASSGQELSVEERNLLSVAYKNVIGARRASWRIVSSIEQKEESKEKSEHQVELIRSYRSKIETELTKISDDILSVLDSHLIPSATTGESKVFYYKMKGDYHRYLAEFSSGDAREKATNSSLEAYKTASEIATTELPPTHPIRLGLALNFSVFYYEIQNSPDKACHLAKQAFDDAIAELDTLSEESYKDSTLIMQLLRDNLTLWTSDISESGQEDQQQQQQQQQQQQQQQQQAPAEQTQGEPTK

T2: recombinant Rim4-6×His (S. cerevisiae, UniProt P38741 1-713)
T2 sequence (looked up): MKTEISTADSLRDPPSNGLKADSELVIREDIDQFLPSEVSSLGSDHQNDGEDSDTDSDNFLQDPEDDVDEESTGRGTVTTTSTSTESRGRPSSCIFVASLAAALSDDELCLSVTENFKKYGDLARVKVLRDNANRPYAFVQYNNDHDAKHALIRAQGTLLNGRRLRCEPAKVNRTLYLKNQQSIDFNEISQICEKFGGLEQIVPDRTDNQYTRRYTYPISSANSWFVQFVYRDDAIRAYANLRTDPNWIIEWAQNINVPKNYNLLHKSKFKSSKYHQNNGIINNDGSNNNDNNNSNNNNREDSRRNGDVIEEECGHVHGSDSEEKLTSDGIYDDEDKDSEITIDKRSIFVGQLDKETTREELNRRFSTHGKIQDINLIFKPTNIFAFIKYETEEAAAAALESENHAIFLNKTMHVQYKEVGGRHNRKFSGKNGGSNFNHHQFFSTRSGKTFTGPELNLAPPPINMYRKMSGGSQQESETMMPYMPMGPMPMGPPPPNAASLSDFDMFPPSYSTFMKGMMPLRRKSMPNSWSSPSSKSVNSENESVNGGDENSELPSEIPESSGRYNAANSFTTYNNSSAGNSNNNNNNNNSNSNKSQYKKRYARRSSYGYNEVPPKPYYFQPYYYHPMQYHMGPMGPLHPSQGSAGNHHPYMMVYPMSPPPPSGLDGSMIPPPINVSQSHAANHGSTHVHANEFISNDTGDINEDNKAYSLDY

T3: recombinant Rim4-EGFP (S. cerevisiae, UniProt P38741 1-713)
T3 sequence (looked up): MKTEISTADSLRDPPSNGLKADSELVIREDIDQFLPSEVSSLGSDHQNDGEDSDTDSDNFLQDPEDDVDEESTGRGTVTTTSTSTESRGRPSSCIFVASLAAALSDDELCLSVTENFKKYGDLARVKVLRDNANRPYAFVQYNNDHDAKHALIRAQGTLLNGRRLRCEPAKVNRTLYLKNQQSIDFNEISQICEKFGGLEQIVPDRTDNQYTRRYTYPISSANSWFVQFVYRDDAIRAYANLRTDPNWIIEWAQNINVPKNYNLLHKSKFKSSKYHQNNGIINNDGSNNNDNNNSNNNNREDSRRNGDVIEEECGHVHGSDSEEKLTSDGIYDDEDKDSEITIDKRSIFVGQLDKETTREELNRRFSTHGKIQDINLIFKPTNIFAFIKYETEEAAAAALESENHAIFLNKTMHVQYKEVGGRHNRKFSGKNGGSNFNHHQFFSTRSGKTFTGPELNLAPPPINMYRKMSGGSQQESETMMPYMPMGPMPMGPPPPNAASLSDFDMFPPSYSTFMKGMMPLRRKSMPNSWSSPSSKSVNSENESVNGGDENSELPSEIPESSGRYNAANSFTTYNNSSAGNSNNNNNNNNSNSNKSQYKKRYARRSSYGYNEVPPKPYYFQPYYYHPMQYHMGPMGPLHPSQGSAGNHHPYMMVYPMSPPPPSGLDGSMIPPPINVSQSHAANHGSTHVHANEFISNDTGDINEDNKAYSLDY


Legend:
[1] = biological target: Rim4-FLAG (S. cerevisiae) (UniProt P38741); experiment: mass photometry
Bmh2 = biological target: T1, Bmh2; experiment: mass photometry
recombinant Rim4-6×His = biological target: T2, recombinant Rim4-6×His; experiment: pull-down
recombinant Rim4-EGFP = biological target: T3, recombinant Rim4-EGFP; experiment: pull-down

| Molecule | stoichiometry N [1] | stoichiometry N (Bmh2) | binding result (recombinant Rim4-6×His) | binding result (recombinant Rim4-EGFP) |
| --- | --- | --- | --- | --- |
| Bmh2 (from UniProt P34730 1-273) (natural protein) | 1 | – | – | – |
| Bmh1 (natural protein, UniProt P29311 1-267, looked up) MSTSREDSVYLAKLAEQAERYEEMVENMKTVASSGQELSVEERNLLSVAYKNVIGARRASWRIVSSIEQKEESKEKSEHQVELICSYRSKIETELTKISDDILSVLDSHLIPSATTGESKVFYYKMKGDYHRYLAEFSSGDAREKATNASLEAYKTASEIATTELPPTHPIRLGLALNFSVFYYEIQNSPDKACHLAKQAFDDAIAELDTLSEESYKDSTLIMQLLRDNLTLWTSDMSESGQAEDQQQQQQHQQQQPPAAAEGEAPK | 1 | 1 | – | – |
| recombinant Cdc14-FLAG (enzyme, S. cerevisiae, UniProt Q00684 1-551, looked up) MRRSVYLDNTIEFLRGRVYLGAYDYTPEDTDELVFFTVEDAIFYNSFHLDFGPMNIGHLYRFAVIFHEILNDPENANKAVVFYSSASTRQRANAACMLCCYMILVQAWTPHQVLQPLAQVDPPFMPFRDAGYSNADFEITIQDVVYGVWRAKEKGLIDLHSFNLESYEKYEHVEFGDFNVLTPDFIAFASPQEDHPKGYLATKSSHLNQPFKSVLNFFANNNVQLVVRLNSHLYNKKHFEDIGIQHLDLIFEDGTCPDLSIVKNFVGAAETIIKRGGKIAVHCKAGLGRTGCLIGAHLIYTYGFTANECIGFLRFIRPGMVVGPQQHWLYLHQNDFREWKYTTRISLKPSEAIGGLYPLISLEEYRLQKKKLKDDKRVAQNNIEGELRDLTMTPPSNGHGALSARNSSQPSTANNGSNSFKSSAVPQTSPGQPRKGQNGSNTIEDINNNRNPTSHANRKVVIESNNSDDESMQDTNGTSNHYPKVSRKKNDISSASSSRMEDNEPSATNINNAADDTILRQLLPKNRRVTSGRRTTSAAGGIRKISGSIKK | – | – | binds | binds |
